Experimental findings from US20200317768A1 (published 2020) are described below.

Residue numbers refer to the chain shown, from its start.

Common to all, as to assay: SPR (BIACORE), 25 C, antibody captured, FcgR as analyte; KD of SG1 divided by KD of variant;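 further: relative to parent M103205H795-SG1 carrying the SG1 human heavy chain constant region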
On the technique in general: In SPR one partner is held on a chip, and binding of the other changes the refractive index at the surface.

Experiment [1] deals with T1, cynomolgus monkey FcγRIIb extracellular domain, His-tagged (cynomolgus monkey).
T1 construct: also called cyno FcγRIIb; cynoFcγRIIb; not shown: C-terminal His-tag
T1 chain: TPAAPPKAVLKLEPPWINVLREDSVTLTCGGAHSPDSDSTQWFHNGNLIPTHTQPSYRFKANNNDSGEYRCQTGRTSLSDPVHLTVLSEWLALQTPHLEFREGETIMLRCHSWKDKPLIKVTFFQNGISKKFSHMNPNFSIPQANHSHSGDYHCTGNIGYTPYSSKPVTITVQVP
The method, then: (§1) The kinetic analysis of interactions between these antibodies and FcγR was carried out using BIACORE® T200 or BIACORE® 4000 (GE Healthcare). HBS-EP+ (GE Healthcare) was used as the running buffer, and the measurement temperature was set to 25° C. A chip produced by immobilizing Protein A. Protein A/G or mouse anti-human IgG kappa light chain (BD Biosciences) onto a Series S Sensor Chip CM4 or CM5 (GE Healthcare) by the amine-coupling method was used. […] After the measurement, the antibody captured on the chip was washed off by allowing reaction with 10 mM glycine-HCl, pH1.5 and 25 mM NaOH so that the chip was regenerated and used repeatedly. The sensorgrams obtained as measurement results were analyzed by the 1:1 Langmuir binding model using the BIACORE® Evaluation Software to calculate the binding rate constant ka (L/mol/s) and dissociation rate constant kd (l/s), and the dissociation constant KD (mol/L) was calculated from these values. […] Regarding such interactions, KD values were calculated using the following 1:1 binding model described in BIACORE® T100 Software Handbook BR1006-48 Edition AE.

The target in experiment [2] is T2, cynomolgus monkey FcγRIIIaS extracellular domain, His-tagged (cynomolgus monkey, UniProt Q8SPW2 21-206 at identity 1.00)).
T2 construct: also called cyno FcγRIIIaS; FcgRIIIaS; not shown: C-terminal His-tag
T2 chain: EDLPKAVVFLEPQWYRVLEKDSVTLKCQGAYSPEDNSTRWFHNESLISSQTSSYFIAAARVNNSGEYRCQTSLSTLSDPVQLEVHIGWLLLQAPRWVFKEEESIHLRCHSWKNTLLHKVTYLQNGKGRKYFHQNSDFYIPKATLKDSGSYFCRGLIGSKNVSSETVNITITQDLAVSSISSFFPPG
The protocol: as §1

Experiment [3] deals with T3, human FcγRIIIaV extracellular domain, His-tagged (human, UniProt P08637 17-208).
T3 construct: also called human FcγRIIIa (V158); FcgRIIIaV; not shown: C-terminal His-tag
T3 sequence (P08637 17-208 F176V): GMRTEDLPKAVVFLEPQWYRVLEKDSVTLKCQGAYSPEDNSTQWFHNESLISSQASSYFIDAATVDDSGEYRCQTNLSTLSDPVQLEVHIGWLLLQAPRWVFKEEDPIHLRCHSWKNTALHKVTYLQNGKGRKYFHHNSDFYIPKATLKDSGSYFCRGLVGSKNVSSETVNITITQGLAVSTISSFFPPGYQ
The protocol: as §1

The target in experiment [4] is T4, human FcγRIIaH extracellular domain, His-tagged (human, UniProt P12318 34-217).
T4 construct: also called human FcγRIIa (type H); FcgRIIaH; not shown: C-terminal His-tag
T4 sequence: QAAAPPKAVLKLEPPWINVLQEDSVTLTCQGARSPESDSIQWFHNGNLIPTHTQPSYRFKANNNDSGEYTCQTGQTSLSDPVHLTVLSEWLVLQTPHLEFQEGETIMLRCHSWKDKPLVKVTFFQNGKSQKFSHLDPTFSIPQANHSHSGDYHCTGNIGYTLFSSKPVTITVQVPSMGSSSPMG
The protocol:
as §1

Experiment [5] concerns the target T5, cynomolgus monkey FcγRIIa3 extracellular domain, His-tagged (cynomolgus monkey).
T5 construct: also called cyno FcγRIIa3; FcgRIIa3; not shown: C-terminal His-tag
T5 chain: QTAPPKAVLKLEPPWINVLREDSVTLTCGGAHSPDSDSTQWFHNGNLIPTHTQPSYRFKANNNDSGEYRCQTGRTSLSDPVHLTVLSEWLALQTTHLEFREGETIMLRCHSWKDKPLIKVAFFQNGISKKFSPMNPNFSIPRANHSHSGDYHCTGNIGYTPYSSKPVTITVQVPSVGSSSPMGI
The method, then: as §1

Experiment [6] deals with T6, human FcγRIIb extracellular domain, His-tagged (human, UniProt P31994 43-217).
T6 construct: also called FcgRIIb (human); not shown: C-terminal His-tag
T6 sequence: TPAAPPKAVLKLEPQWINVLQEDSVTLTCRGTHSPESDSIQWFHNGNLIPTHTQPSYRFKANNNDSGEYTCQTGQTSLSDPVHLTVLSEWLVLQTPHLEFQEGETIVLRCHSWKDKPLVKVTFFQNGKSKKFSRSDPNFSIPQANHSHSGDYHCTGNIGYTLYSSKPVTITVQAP
The method, then:
as §1

The target of experiment [7] is T7, human FcγRIIaR extracellular domain, His-tagged (human, UniProt P12318 34-217).
T7 construct: also called human FcγRIIa (type R); FcgRIIaR; not shown: C-terminal His-tag
T7 chain: T4 sequence with H134R
The protocol:
as §1

Experiment [8] has as its target T8, cynomolgus monkey FcγRIIa1 extracellular domain, His-tagged (cynomolgus monkey).
T8 construct: also called cyno FcγRIIa1; FcgRIIa1; not shown: C-terminal His-tag
T8 chain: T5 chain with T95P, A121T, S128A, P133H, N135D
The method, then: as §1

In experiment [9] the target is T9, cynomolgus monkey FcγRIIa2 extracellular domain, His-tagged (cynomolgus monkey).
T9 construct: also called cyno FcγRIIa2; FcgRIIa2; not shown: C-terminal His-tag
T9 chain: T5 chain with I127K, K130N, P133H, R142Q
The protocol:
as §1

B1: M103205H795-MY449 / M103202L889-SK1 (antibody, human IgG1, kappa)
heavy: QVTLKESGPVLVKPTETLTLTCTVSGIDLSHDDISWVRQAPGKGLEWVGIISYAGSTYYASWAKGRLTISKDTSKNQVVLTMTNMDPVDTATYYCARGVPAYSHGGDLWGQGTLVTVSSASTKGPSVFPLAPSSKSTSGGTAALGCLVKDYFPEPVTVSWNSGALTSGVHTFPAVLQSSGLYSLSSVVTVPSSSLGTQTYICNVNHKPSNTKVDKKVEPKSCDKTHTCPPCPALELLTGPSVFLFPPKPKDTLMISRTPEVTCVVVDVSDEDPEVKFNWYVDGVEVHNAKTKPREEQYNSTYRVVSVLTVLHQDWLNGKEYKCKVSNKALPKPIEKTISKAKGQPREPQVYTLPPSREEMTKNQVSLTCLVKGFYPSDIAVEWESNGQPENNYKTTPPVLDSDGSFFLYSKLTVDKSRWQQGNVFSCSVMHEALHNHYTQKSLSLSP
light: DIVMTQSPATLSLSPGERATLSCTSSQSVYHANWLSWFQQKPGQPPKLLIYWASTLAYGVPSRFSGSGSGTDFTLTISSLQPEDAATYYCAGGYGGGRYAFGQGTKVEIKRTVAAPSVFIFPPSDEQLKSGTASVVCLLNNFYPREAKVQWKVDNALQSGNSQESVTEQDSKDSTYSLSSTLTLSKADYEKHKVYACEVTHQGLSSPVTKSFNRGEC
In the case of B1, the “KD fold (SG1 = 1)” value in experiment [1] was 7.8 fold; in experiment [2] it was 0.4 fold; in experiment [3], 0.3 fold; in experiment [4], 7 fold; in experiment [5], 11.3 fold; in experiment [6] it was 15.9 fold. Also, the “KD fold (SG1 = 1)” value in [7] amounted to 14.9 fold; in [8], 3.7 fold; in [9], 5.4 fold.

B2: M103205H795-MY453 / M103202L889-SK1 (antibody, human IgG1, kappa)
heavy: B1 heavy with L234R
light: B1 light
notes: substitution positions are EU numbers
B2: the “KD fold (SG1 = 1)” value is 0.3 fold in [1]; 0.1 fold in experiment [2]; 0.1 fold in [3]; 0.9 fold in experiment [4]; 0.8 fold in experiment [5]; 0.7 fold in [6]. Moreover, the “KD fold (SG1 = 1)” value turned out to be 0.7 fold in experiment [7], 0.5 fold in [8] and 0.5 fold in [9].

B3: M103205H795-MY450 / M103202L889-SK1 (antibody, human IgG1, kappa)
heavy: B1 heavy with L234M
light: B1 light
notes: as for B2
For B3, the “KD fold (SG1 = 1)” value worked out at 6.4 fold in experiment [1]; 0.3 fold in [2]; 0.3 fold in [3]; 5.8 fold in experiment [4]; 7.7 fold in experiment [5]; 9.3 fold in experiment [6]. The “KD fold (SG1 = 1)” value amounted to 9.2 fold in experiment [7], 2.3 fold in experiment [8] and 4.6 fold in experiment [9].

B4: M103205H795-MY454 / M103202L889-SK1 (antibody, human IgG1, kappa)
heavy: B1 heavy with L234S
light: B1 light
notes: as for B2
Take B4: the “KD fold (SG1 = 1)” value came to 1.3 fold in experiment [1]; 0.1 fold in [2]; 0.1 fold in [3]; 1.7 fold in experiment [4]; 1.2 fold in experiment [5]; 1.5 fold in experiment [6]. For the same molecule, the “KD fold (SG1 = 1)” value in experiment [7] was determined as 1.4 fold; in experiment [8] it was 0.8 fold; in experiment [9], 1.6 fold.

B5: M103205H795-MY452 / M103202L889-SK1 (antibody, human IgG1, kappa)
heavy: B1 heavy with L234Q
light: B1 light
notes: as for B2
With B5, the “KD fold (SG1 = 1)” value in [1] stood at 2 fold; in experiment [2], 0.1 fold; in experiment [3], 0.1 fold; in [4] it was 1.9 fold; in experiment [5] it was 1.6 fold; in experiment [6], 1.6 fold. The “KD fold (SG1 = 1)” value in [7] came out at 1.8 fold; in [8], 0.9 fold; in [9], 1.6 fold.

B6: M103205H795-MY451 / M103202L889-SK1 (antibody, human IgG1, kappa)
heavy: B1 heavy with L234N
light: B1 light
notes: as for B2
As to B6, the “KD fold (SG1 = 1)” value in experiment [1] was found to be 1.8 fold; in experiment [2], 0.1 fold; in experiment [3], 0.1 fold; in experiment [4], 1.7 fold; in [5], 1.5 fold; in experiment [6] it was 1.5 fold. Besides, the “KD fold (SG1 = 1)” value was 1.7 fold in experiment [7], 0.9 fold in experiment [8] and 1.2 fold in [9].

B7: M103205H795-MY455 / M103202L889-SK1 (antibody, human IgG1, kappa)
heavy: B1 heavy with L234T
light: B1 light
notes: as for B2
For B7, the “KD fold (SG1 = 1)” value turned out to be 2 fold in [1]; 0.1 fold in experiment [2]; 0.1 fold in experiment [3]; 2.2 fold in experiment [4]; 3.1 fold in experiment [5]; 2.1 fold in [6]. Also, the “KD fold (SG1 = 1)” value in experiment [7] was 2.4 fold; in experiment [8] it was 1 fold; in [9], 1.8 fold.
